Data taken from patent US10994047B2, “Peptide dendrimers comprising fibrinogen-binding peptides” (HAEMOSTATIX LIMITED, priority 2014, dated 2021).
Where no end group is shown, it is not given here.

What was measured:
[1] = target: T1, fibrinogen hole 'a' and hole 'b' (Homo sapiens, UniProt P02675+P02679); conditions: cited from earlier work
T1 sequence (P02679 27-433 limits assumed): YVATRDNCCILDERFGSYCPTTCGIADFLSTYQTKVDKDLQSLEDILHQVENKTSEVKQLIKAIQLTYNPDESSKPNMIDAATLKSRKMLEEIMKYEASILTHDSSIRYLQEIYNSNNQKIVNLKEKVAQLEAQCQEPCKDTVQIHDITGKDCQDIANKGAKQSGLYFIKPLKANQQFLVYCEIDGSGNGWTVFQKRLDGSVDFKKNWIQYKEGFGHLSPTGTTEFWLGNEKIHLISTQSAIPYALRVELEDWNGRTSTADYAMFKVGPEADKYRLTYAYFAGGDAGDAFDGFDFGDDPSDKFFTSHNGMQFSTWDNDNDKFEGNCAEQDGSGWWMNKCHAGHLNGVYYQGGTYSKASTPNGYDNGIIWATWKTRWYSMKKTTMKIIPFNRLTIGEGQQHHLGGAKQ
T1 sequence (P02675 31-491): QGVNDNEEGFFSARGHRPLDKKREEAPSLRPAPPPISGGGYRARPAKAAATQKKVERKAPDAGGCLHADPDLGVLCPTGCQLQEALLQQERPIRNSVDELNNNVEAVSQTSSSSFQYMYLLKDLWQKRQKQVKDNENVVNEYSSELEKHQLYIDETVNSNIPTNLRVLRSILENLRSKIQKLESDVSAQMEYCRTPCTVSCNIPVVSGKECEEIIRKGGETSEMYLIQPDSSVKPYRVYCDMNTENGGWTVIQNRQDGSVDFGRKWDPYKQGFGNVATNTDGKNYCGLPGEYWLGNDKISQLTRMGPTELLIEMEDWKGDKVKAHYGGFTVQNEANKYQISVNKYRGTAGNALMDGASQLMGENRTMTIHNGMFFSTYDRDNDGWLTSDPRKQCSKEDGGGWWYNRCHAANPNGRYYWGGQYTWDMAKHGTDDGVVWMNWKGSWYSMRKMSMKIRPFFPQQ
T1 sequence (P02671 20-629 partner limits assumed): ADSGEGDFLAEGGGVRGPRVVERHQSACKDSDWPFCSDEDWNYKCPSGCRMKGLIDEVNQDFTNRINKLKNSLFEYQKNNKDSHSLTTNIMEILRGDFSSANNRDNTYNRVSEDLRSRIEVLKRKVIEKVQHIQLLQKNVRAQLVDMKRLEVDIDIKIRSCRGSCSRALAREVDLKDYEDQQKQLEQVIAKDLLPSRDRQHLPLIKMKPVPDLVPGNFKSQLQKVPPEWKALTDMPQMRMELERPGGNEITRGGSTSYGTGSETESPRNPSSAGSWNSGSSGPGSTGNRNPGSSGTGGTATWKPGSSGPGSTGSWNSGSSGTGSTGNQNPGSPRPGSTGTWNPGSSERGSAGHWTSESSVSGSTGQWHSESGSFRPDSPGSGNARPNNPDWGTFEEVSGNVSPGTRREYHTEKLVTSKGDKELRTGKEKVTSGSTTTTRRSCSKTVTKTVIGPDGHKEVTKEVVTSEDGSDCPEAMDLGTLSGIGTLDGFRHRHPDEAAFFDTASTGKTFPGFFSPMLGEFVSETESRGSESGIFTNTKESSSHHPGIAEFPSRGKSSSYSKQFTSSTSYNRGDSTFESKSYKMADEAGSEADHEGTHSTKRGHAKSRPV

[2] = target: T2, purified human fibrinogen (Homo sapiens, UniProt P02675+P02679); experiment: Copolymerisation of peptide dendrimer with purified fibrinogen, clotting time on KC4 Delta coagulation analyser; type: biochemical
T2 sequence (P02679 27-433 limits assumed): T1 sequence (P02679 27-433 limits assumed)
T2 sequence (P02675 31-491): T1 sequence (P02675 31-491)
T2 sequence (P02671 20-629 partner limits assumed): T1 sequence (P02671 20-629 partner limits assumed)
Method: The ability of Peptide Dendrimer No. 12 to polymerise fibrinogen was assessed. 30 μl of dendrimer in solution, at concentration ranging from 0.005-2 mg/ml, was added to 100 μl purified human fibrinogen at 3 mg/ml (the level of fibrinogen found in the blood). Polymerisation of fibrinogen was analysed using a Sigma Amelung KC4 Delta coagulation analyser.
The ability of Peptide Dendrimer Nos. 4, 5, 10, 11, and 12 to copolymerise with fibrinogen was assessed using the same method described in Example 2. The concentration of each dendrimer was varied from 0.005-0.5 mg/ml.
The ability of the dendrimers to copolymerise with fibrinogen was assessed using the same method described in Example 2, for a concentration of each dendrimer ranging from 0.005-0.5 mg/ml.

[3] = target: T3, fibrinogen in human plasma (Homo sapiens, UniProt P02675+P02679); experiment: Polymerisation of fibrinogen in human plasma, clotting time; type: biochemical; conditions: 37° C.; for ability to polymerise fibrinogen in human plasma: 30 μL dendrimer 0.25 mg/ml added to 100 μL human plasma, FIG. 7
T3 construct: from tissue; host or cells: human plasma
T3 sequence (P02679 27-433 limits assumed): T1 sequence (P02679 27-433 limits assumed)
T3 sequence (P02675 31-491): T1 sequence (P02675 31-491)
T3 sequence (P02671 20-629 partner limits assumed): T1 sequence (P02671 20-629 partner limits assumed)
Method: 30 μL of each dendrimer (at a concentration of 0.25 mg/ml) was added to 100 μL human plasma at 37° C., and polymerisation of fibrinogen was determined using a Sigma Amelung KC4 Delta coagulation analyzer.

human fibrinogen = target: T4, human fibrinogen (Homo sapiens, UniProt P02675+P02679); experiment: Clotting activity of dendrimers extracted from gamma-irradiated gelatin paste; type: biochemical; conditions: 37° C.
T4 sequence (P02679 27-433 limits assumed): T1 sequence (P02679 27-433 limits assumed)
T4 sequence (P02675 31-491): T1 sequence (P02675 31-491)
T4 sequence (P02671 20-629 partner limits assumed): T1 sequence (P02671 20-629 partner limits assumed)
Method: 2 ml of solution of Peptide Dendrimer No. 12 or 13 was mixed with SURGIFLO Haemostatic Matrix (a hydrated flowable gelatin matrix) to form a paste of each peptide. Each paste was sterilised by irradiation with ^60Co gamma rays at a dose of 30 kGy, and then stored at room temperature. Samples of the sterilised pastes were used for testing after storage for two and four weeks.
After storage, peptide dendrimers were extracted from each paste using 10 mM HEPES buffer. 30 μL of each extract (with a peptide concentration of about 0.25 mg/ml) was added to 100 μL of human fibrinogen at 3 mg/ml, and the ability of each dendrimer to polymerise fibrinogen (the ‘clotting’ activity) at 37° C. was determined using a Sigma Amelung KC4 Delta coagulation analyser. The polymerisation activity of non-irradiated control samples was also determined.

[4] = dendrimer 0.005-0.5 mg/ml, fibrinogen 3 mg/ml, FIG. 2 and 3

## GHRPY- (SEQ ID NO: 11) (listed as Homo sapiens)
[1]
  binding preference for hole 'a' or hole 'b' of fibrinogen: binds strongly and preferentially to the ‘b’ hole of fibrinogen

## GPRP- (SEQ ID NO: 1)
[1]
  binding preference for hole 'a' or hole 'b' of fibrinogen: binds strongly and preferentially to the ‘a’ hole of fibrinogen

## GPRPFPA (listed as Homo sapiens) [GPRPFPA (SEQ ID NO: 3)]
[1]
  binding preference for hole 'a' or hole 'b' of fibrinogen: binds with high preference for hole ‘a’ in fibrinogen

## GPRPG (SEQ ID NO: 15) ((5)..(5) Carbox-terminal end may comprise an amide group; listed as Homo sapiens)
[1]
  binding preference for hole 'a' or hole 'b' of fibrinogen: binds to hole ‘a’ and hole ‘b’ of fibrinogen, but with some preference for hole ‘a’

## Peptide Dendrimer No. 8: three-branch dendrimer: two peptides GPRPG, third APFPRPG attached by its amino-terminal end, carboxy-terminal amide (chain 2 APFPRPG-NH2; also: three-branch dendrimer core: two GPRPG, APFPRPG attached by its amino-terminal end; listed as Homo sapiens)
[2]; [4]
  ability to copolymerise with fibrinogen (clotting time): able to copolymerise with fibrinogen
[3]
  ability to polymerise fibrinogen in human plasma: not able to polymerise fibrinogen in human plasma

## Peptide Dendrimer No. 9: three-branch dendrimer: two peptides GPRPFPA, third APFPRPG attached by its amino-terminal end, carboxy-terminal amide (chain 2 APFPRPG-NH2; also: three-branch dendrimer core: two GPRPFPA, APFPRPG attached by its amino-terminal end; listed as Homo sapiens)
[2]; [4]
  ability to copolymerise with fibrinogen (clotting time): very active in copolymerising with fibrinogen
[3]
  ability to polymerise fibrinogen in human plasma: not able to polymerise fibrinogen in human plasma

## Peptide Dendrimer No. 10: three-branch dendrimer, three GPRPG peptides each attached by carboxy-terminal end to the branched core (also: three copies of chain 1 attached by C-termini to a branched core; listed as Homo sapiens)
[2]; concentrations below ~0.125 mg/ml dendrimer, FIG. 2
  clotting times compared between dendrimers: faster clotting times than dendrimer no. 4
[3]
  ability to polymerise fibrinogen in human plasma: able to polymerise fibrinogen in human plasma

## Peptide Dendrimer No. 12: five-arm dendrimer, GPRPG- peptides; branched core with five consecutive lysine residues linked through side chains (chain KKKKK; also: five-arm dendrimer of GPRPG on core of five lysines linked through side chains, attachment places not given here)
[2]; dendrimer 0.005-2 mg/ml, 100 μl purified human fibrinogen 3 mg/ml, FIG. 1
  ability to copolymerise with fibrinogen (clotting time): able to copolymerise with fibrinogen almost instantaneously
[2]; dendrimer range ~0.02-0.5 mg/ml, FIG. 2
  clotting: almost instantaneous clotting
[3]
  ability to polymerise fibrinogen in human plasma: able to polymerise fibrinogen in human plasma
[3]; dendrimer 0.25 mg/ml, human plasma
  clotting time in human plasma: less than one
Human fibrinogen; extract from gelatin paste, about 0.25 mg/ml peptide, human fibrinogen 3 mg/ml, not irradiated
  Clotting activity, Non-irradiated control: 1 s
Human fibrinogen; paste irradiated 30 kGy 60Co gamma, stored 2 weeks at room temperature, extract about 0.25 mg/ml, fibrinogen 3 mg/ml
  Clotting activity, Storage for 2 weeks post irradiation: 1 s
Human fibrinogen; paste irradiated 30 kGy 60Co gamma, stored 4 weeks at room temperature, extract about 0.25 mg/ml, fibrinogen 3 mg/ml
  Clotting activity, Storage for 4 weeks post irradiation: 1 s
